The assay has as its target T1, recombinant FcRn (FCGRT ectodomain with β-2-Microglobulin), expressed in CHO-S cells (human, UniProt P55899 24-297; P61769 21-119).
T1 construct: signal peptide in the construct; ectodomain of human FCGRT (FcRn heavy chain), Met1-Ser297, followed by a C-terminal thrombin cleavage site before the tags; β-2-Microglobulin, Met1-Met119; also called neonatal Fc receptor; source: CHO-S cells, electroporated with both plasmids, purified from the media (StrepTrap XT)
As to the kind of experiment: BLI; HIS1K biosensors loaded with HAstV-8 spike (6 μg/ml); FcRn in solution, 1,000 to 62.5 nM (mutant spike: 2,000 nM only); 0.1M sodium phosphate, 150 mM NaCl, 0.05% Tween-20, pH 7.0; 25 °C; 1:1 binding model; triplicate. The note with it: both partners purified.

T1 sequence (P55899 24-297, chain 1 of 2): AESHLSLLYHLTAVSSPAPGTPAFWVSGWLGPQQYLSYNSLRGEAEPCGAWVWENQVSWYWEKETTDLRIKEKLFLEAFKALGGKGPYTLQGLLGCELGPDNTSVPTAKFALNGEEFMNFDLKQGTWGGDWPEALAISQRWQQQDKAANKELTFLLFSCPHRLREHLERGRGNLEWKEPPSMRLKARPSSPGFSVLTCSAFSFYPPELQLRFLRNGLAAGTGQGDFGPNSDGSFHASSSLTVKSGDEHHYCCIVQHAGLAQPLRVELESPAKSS
T1 sequence (P61769 21-119, chain 2 of 2): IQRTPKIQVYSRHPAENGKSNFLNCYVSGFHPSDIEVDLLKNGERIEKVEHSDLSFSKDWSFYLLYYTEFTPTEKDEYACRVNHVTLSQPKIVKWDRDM

B1: recombinant WT HAstV-8 capsid spike (domain or fragment)
chain: GEQFRVLLTVGPPMAPNTANSQNWVNKTIVPPENQYTVKIGIDLEHYTTMQGFTPVESVSWYTADFQPSDEPSPIPGLYARVNNTKKADVYGVQQFKSSHTNNRHQITSVFLVRVTTSFQVINYTSYFIRGAESGSNVSNLKIRDQTYHTPLQFTQGKWYLLTSTVMHDGPTSSGWVWMNQELTNNIAYRVDPGMMYLITPPPAASQLYFELHTVLPQA
modifications: Wild-type spike. Limits are not printed: about 429-647 is taken by convention from related HAstV spike constructs and is close to the VP25 feature 424-648. The C-terminal thrombin site and His10 tag …
Regarding B1, the Kd is ~280 nM.

The record behind these values is paper PMC12289001, “Functional characterization of DPP4 and FcRn as receptor and coreceptor for classical human astroviruses in Caco-2 cells” (PLOS Pathogens, 2025).
